Results reported in patent US20190290686A1.

Target: T cell receptor of CD8+ T cells from OT1 transgenic mice (ova-specific T cells)
Assay: cell-based or functional assay

expansion of OT1 cells in vivo after a second aAPC dose (FIG. 6): > 200 fold
Substance: H-2Kb SIINFEKL-DBCO-Thiolinker monomer clicked onto azido-labeled murine erythroid cells (from UniProt P01901 22-305) (peptide-MHC)
